Measurements published in the supplement of paper PMC10724198.
± gives the standard deviation of the averaged measurements.

System: Saccharomyces cerevisiae
Test: protein stability index of tFT-peptide fusion (C-terminal peptide) (PSI (0-1 scale)); higher = more stable (slower turnover)
Settings: temperature: 30 C
Experimental: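 MPS profiling in S. cerevisiae of the yeast C-terminome library: the last 12 aa of each annotated ORF are fused to the C-terminus of a sfGFP-mCherry timer, after a GGGS linker. Cells are FACS-sorted into 8 mCherry/sfGFP bins and deep-sequenced. PSI runs from 0 (unstable) to 1 (stable); wild type and das1Δ backgrounds, two technical replicates each.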

[1] = genetic background: das1 deletion

| Sequence | protein stability index [1] | protein stability index (genetic background: wild type) |
| --- | --- | --- |
| FKVDDNVDFPSA [RPN2 C-terminal 12 aa] | 0.681 ± 0.016 | 0.744 ± 0.089 |
| PNLSRANFTRNK [RSA1 C-terminal 12 aa] | 0.695 ± 0.019 | 0.699 ± 0.014 |
| AYIDTSIPNLLL [REG2 C-terminal 12 aa] | 0.707 ± 0.022 | 0.7067 ± 0.0067 |
| CPHHNPDNQQFF [BIK1 C-terminal 12 aa] | 0.702 ± 0.025 | 0.702 ± 0.078 |
| TLRGLSNAFPTD [MME1 C-terminal 12 aa] | 0.7057 ± 0.0043 | 0.703 ± 0.013 |
| KQPDLQERVTQE [MHF1 C-terminal 12 aa] | 0.666 ± 0.045 | 0.685 ± 0.14 |
| NTTHYNASLLRQ [PHO5 C-terminal 12 aa] | 0.688 ± 0.022 | 0.673 ± 0.017 |
| TSIEEDLASKSE [RTA1 C-terminal 12 aa] | 0.689 ± 0.02 | 0.676 ± 0.008 |
| DHIPLLTEFKIL [NGL1 C-terminal 12 aa] | 0.721 ± 0.036 | 0.188 ± 0.02 |
| LYWDPSWITRQL [SNF8 C-terminal 12 aa] | 0.716 ± 0.019 | 0.621 ± 0.043 |
| DSLENKIDSMTK [INH1 C-terminal 12 aa] | 0.715 ± 0.018 | 0.714 ± 0.055 |
| VDFIKEFAEKNA [SER1 C-terminal 12 aa] | 0.708 ± 0.011 | 0.706 ± 0.014 |
| ACHMAKPLKLPT [YHR032C-A C-terminal 12 aa] | 0.679 ± 0.017 | 0.673 ± 0.029 |
| DLTKKPKKITFD [DBP3 C-terminal 12 aa] | 0.6923 ± 0.0048 | 0.638 ± 0.018 |
| KWIEYVEEFQNW [FRE5 C-terminal 12 aa] | 0.7168 ± 0.00097 | 0.73 ± 0.016 |
| QCNFSYLESNYF [CTS1 C-terminal 12 aa] | 0.689 ± 0.019 | 0.749 ± 0.06 |
| KQEQESLGSNSK [DAD3 C-terminal 12 aa] | 0.666 ± 0.012 | 0.661 ± 0.035 |
| KKLRQPKEGETF [MMS2 C-terminal 12 aa] | 0.7046 ± 0.00082 | 0.6737 ± 0.00082 |
| NKPKGPLRKRRT [TWF1 C-terminal 12 aa] | 0.7 ± 0.017 | 0.672 ± 0.011 |
| IASQNSLGWNEV [MSB2 C-terminal 12 aa] | 0.69667 ± 0.00047 | 0.693 ± 0.024 |
| RATLNSVNSFLM [RIT1 C-terminal 12 aa] | 0.681 ± 0.013 | 0.673 ± 0.023 |

| Sequence | protein stability index [1] | protein stability index (genetic background: wild type) |
| --- | --- | --- |
| PDCTVCSNSNSN [UBA3 C-terminal 12 aa] | 0.705 ± 0.0088 | 0.677 ± 0.047 |
| FKCVHTPCNVYI [YER078W-A C-terminal 12 aa] | 0.679 ± 0.0076 | 0.665 ± 0.037 |
| LKQIEMISGFSL [ADF1 C-terminal 12 aa] | 0.707 ± 0.012 | 0.683 ± 0.053 |
| VATYLREHEYDQ [AAP1 C-terminal 12 aa] | 0.6847 ± 0.0021 | 0.7314 ± 0.0051 |
| AFIFGNYKDILT [RGA1 C-terminal 12 aa] | 0.755 ± 0.01 | 0.7204 ± 0.0034 |
| NPNSLPLQPIAN [MSC2 C-terminal 12 aa] | 0.704 ± 0.018 | 0.691 ± 0.015 |
| LSAGFGIGEFML [YGR079W C-terminal 12 aa] | 0.72 ± 0.023 | 0.692 ± 0.036 |
| ISKVSNTRVCCT [YAL004W C-terminal 12 aa] | 0.6431 ± 0.0031 | 0.654 ± 0.017 |
| FSSEQGNPKEEK [FMP10 C-terminal 12 aa] | 0.702 ± 0.034 | 0.733 ± 0.03 |
| EGRKVKKVSFAQ [LOC1 C-terminal 12 aa] | 0.7297 ± 0.0035 | 0.7111 ± 0.0032 |
| LPQRSIPCAIYP [YCR108C C-terminal 12 aa] | 0.687 ± 0.012 | 0.7045 ± 0.0036 |
| AEFFTKFDELVV [EHT1 C-terminal 12 aa] | 0.6616 ± 0.0027 | 0.666 ± 0.045 |
| GDKLISPLKKAF [TKL1 C-terminal 12 aa] | 0.675 ± 0.013 | 0.711 ± 0.044 |
| RIAAGDGDDDDE [QCR9 C-terminal 12 aa] | 0.7068 ± 0.0027 | 0.674 ± 0.041 |
| NRVPKWMKLSKK [UBX4 C-terminal 12 aa] | 0.676 ± 0.012 | 0.679 ± 0.027 |
| VIDLDNSVAREV [MDL1 C-terminal 12 aa] | 0.7044 ± 0.0069 | 0.64 ± 0.007 |
| GKLLVPLVLYQI [YDR182W-A C-terminal 12 aa] | 0.673 ± 0.019 | 0.535 ± 0.0071 |
| IGGLKREAEASA [GDH2 C-terminal 12 aa] | 0.695 ± 0.041 | 0.719 ± 0.0075 |
| STPIAIGIMNIL [YDR271C C-terminal 12 aa] | 0.674 ± 0.018 | 0.697 ± 0.0089 |
| MKTRLERERGLV [PTC4 C-terminal 12 aa] | 0.694 ± 0.027 | 0.638 ± 0.019 |
| DKKKKKSKCVIL [RHO5 C-terminal 12 aa] | 0.753 ± 0.0091 | 0.74 ± 0.014 |

| Sequence | protein stability index [1] | protein stability index (genetic background: wild type) |
| --- | --- | --- |
| RLGLDWQPDSVS [MTH1 C-terminal 12 aa] | 0.695 ± 0.01 | 0.686 ± 0.039 |
| KAFVIGAIALVA [YMR317W C-terminal 12 aa] | 0.331 ± 0.01 | 0.341 ± 0.0043 |
| LSAIVFLGTSSH [AVT5 C-terminal 12 aa] | 0.7155 ± 0.0055 | 0.704 ± 0.021 |
| ATMALRKLVSRE [MSA2 C-terminal 12 aa] | 0.693 ± 0.025 | 0.705 ± 0.061 |
| RLEKEAKIKQEE [CDC11 C-terminal 12 aa] | 0.6967 ± 0.0039 | 0.678 ± 0.032 |
| ENISSPLGKKSR [PSY4 C-terminal 12 aa] | 0.691 ± 0.0098 | 0.706 ± 0.0047 |
| LVHIKMENGIVS [IZH2 C-terminal 12 aa] | 0.65319 ± 0.00027 | 0.693 ± 0.019 |
| AHQKEILHSVSN [YML6 C-terminal 12 aa] | 0.695 ± 0.016 | 0.726 ± 0.034 |
| FLLVLFFICIIL [YOL014W C-terminal 12 aa] | 0.366 ± 0.013 | 0.3063 ± 0.0029 |
| KKGPKFKSRKKL [RRP12 C-terminal 12 aa] | 0.748 ± 0.037 | 0.678 ± 0.011 |
| LLMVSVVNFVPL [YPL182C C-terminal 12 aa] | 0.474 ± 0.034 | 0.479 ± 0.0093 |
| KHKNILPFNFTK [YEL074W C-terminal 12 aa] | 0.703 ± 0.037 | 0.741 ± 0.0086 |
| GQVIDPLKAPFK [UTP14 C-terminal 12 aa] | 0.6757 ± 0.0012 | 0.691 ± 0.043 |
| ESIVDFVERHED [IMO32 C-terminal 12 aa] | 0.714 ± 0.017 | 0.691 ± 0.019 |
| NGWHELALPQSR [SWM1 C-terminal 12 aa] | 0.74 ± 0.0028 | 0.705 ± 0.021 |
| LSTKNIDDGMIS [COG7 C-terminal 12 aa] | 0.706 ± 0.025 | 0.679 ± 0.052 |
| IELIQNMNKESF [YOR131C C-terminal 12 aa] | 0.696 ± 0.03 | 0.692 ± 0.015 |
| KIRPTFGDNQAS [HST3 C-terminal 12 aa] | 0.6923 ± 0.001 | 0.73 ± 0.043 |
| CVKVQQFSVIVL [YDR193W C-terminal 12 aa] | 0.544 ± 0.013 | 0.617 ± 0.011 |
| TILFMLVLYTIV [YDL241W C-terminal 12 aa] | 0.222 ± 0.017 | 0.222 ± 0.023 |
| PEMDKEKKKFYL [RPF1 C-terminal 12 aa] | 0.724 ± 0.04 | 0.708 ± 0.06 |

| Sequence | protein stability index [1] | protein stability index (genetic background: wild type) |
| --- | --- | --- |
| THENIHQKFVQF [SFB3 C-terminal 12 aa] | 0.7294 ± 0.004 | 0.6358 ± 0.0022 |
| LNAFQHPIVEFQ [YEL028W C-terminal 12 aa] | 0.755 ± 0.013 | 0.69 ± 0.022 |
| LLLQKSGTYLLL [ARV1 C-terminal 12 aa] | 0.639 ± 0.032 | 0.638 ± 0.0066 |
| MFTSDKKTEQTT [URC2 C-terminal 12 aa] | 0.708 ± 0.0052 | 0.695 ± 0.011 |
| GPEKAAELAFLA [YML079W C-terminal 12 aa] | 0.685 ± 0.024 | 0.6497 ± 0.0026 |
| VVCFVSYQKLSS [OPI9 C-terminal 12 aa] | 0.635 ± 0.011 | 0.168 ± 0.026 |
| IVKAVKEVLSIE [PDB1 C-terminal 12 aa] | 0.683 ± 0.0044 | 0.667 ± 0.044 |
| SAIADDDEEHKE [LHP1 C-terminal 12 aa] | 0.7103 ± 0.0044 | 0.678 ± 0.051 |
| FMGLGCVISEEL [TFB3 C-terminal 12 aa] | 0.693 ± 0.01 | 0.685 ± 0.097 |
| KTSNTKVSSRKA [ELO3 C-terminal 12 aa] | 0.6964 ± 0.0051 | 0.673 ± 0.03 |
| INEDNKAYSLDY [RIM4 C-terminal 12 aa] | 0.69877 ± 0.00035 | 0.722 ± 0.026 |
| EHYSDGDVCIII [DAL3 C-terminal 12 aa] | 0.68 ± 0.032 | 0.68 ± 0.016 |
| LYLLLARVFEIW [SNF11 C-terminal 12 aa] | 0.567 ± 0.059 | 0.5614 ± 0.0025 |
| HLSGSTIDTTVV [DSE1 C-terminal 12 aa] | 0.6624 ± 0.0029 | 0.685 ± 0.012 |
| FIREFVLKNYSK [SNO2 C-terminal 12 aa] | 0.669 ± 0.0099 | 0.71 ± 0.068 |
| ALKKAARQVKKE [IFA38 C-terminal 12 aa] | 0.71 ± 0.0074 | 0.6713 ± 0.0036 |
| SRFRTNRLKGDQ [YNL042W-B C-terminal 12 aa] | 0.699 ± 0.027 | 0.689 ± 0.026 |
| NTHDLHLRPGTY [YBL005W-A C-terminal 12 aa] | 0.6794 ± 0.00083 | 0.708 ± 0.013 |
| RYENFINMARHK [YOR097C C-terminal 12 aa] | 0.816 ± 0.054 |  |
| NIATIASERSRP [YPL102C C-terminal 12 aa] | 0.723 ± 0.046 | 0.683 ± 0.007 |
